From patent US10561709B2, “Methods and compositions of neuregulins for preventing, treating or delaying preserved ejection fraction cardiac failure” (Zensun (Shanghai) Science & Technology, Co., Ltd., priority 2014, dated 2020)

Legend:
[1] = system: SHR hypertensive rats with heart failure; experiment: Hemodynamic measurement in hypertensive heart failure rats; format: in vivo, rat; conditions: captopril 10 mg/kg intragastric 2 times a day; for MAP / −dp/dt: hypertensive heart failure rats, after 3 treatment cycles, rhNRG 6.5 ug/kg i.v. once a day 5 days on/2 days off
Method: (§1) The study is on the therapeutic effect of recombinant human neuregulin (rhNRG) in SHR hypertensive rats with heart failure. Methods: SHR hypertensive rat strains, normal feeding, monitoring changes of cardiac function during feeding. […] Hypertensive heart failure rats were randomly divided into negative control group, NRG treatment group and captopril treatment group. rhNRG was administered continuously for 5 days, withdrawing for 2 days in a treatment cycle, NRG group received 3 treatment cycles. At the end of the second and third treatment cycle, each group of rats was examined by echocardiography to determine the cardiac function changes. After the third treatment cycle, hemodynamics of the rats were detected.
(§2) The SHR hypertensive rat strains, normal feeding, and monitoring the cardiac function changes during the feeding.
After the model was successfully established, the rats were randomly divided into negative control group, NRG treatment group and captopril treatment group. RhNRG was administered intravenously, with a dose of 6.5 ug/kg, once a day, 5 days of continuous administration and 2 days of drug withdraw period as a treatment cycle. A total of 3 treatment cycles were administered. At the same time, the NRG group was given drinking water by intragastric administration two times a day. Captopril was administrated 10 mg/kg by intragastric administration, 2 times a day, continuous administration. NRG excipient was administrated by tail vein injection for 3 treatment cycles. The negative control group were given drinking water by intragastric administration and given NRG excipients by tail vein injection.
At the end of the third treatment cycle, the rats were anesthetized with 3% pentobarbital by intraperitoneal injection. Median incision was made in the neck, the left common carotid artery was isolated and intubated, and the arterial and left ventricular hemodynamic parameters were measured.

[2] = system: SHR hypertensive rats with heart failure; experiment: Echocardiography examination in hypertensive heart failure rats; format: in vivo, rat; conditions: rhNRG 6.5 ug/kg, after 2 cycles or 3 cycles of treatment
Method: as §1, §2
After the model was successfully established, the rats were randomly divided into negative control group, NRG treatment group and captopril treatment group. RhNRG was administered intravenously, with a dose of 6.5 ug/kg, once a day, 5 days of continuous administration and 2 days of drug withdraw period as a treatment cycle. A total of 3 treatment cycles were administered. At the same time, the NRG group was given drinking water by intragastric administration two times a day. […]

[3] = system: patients with heart failure with preserved ejection fraction; experiment: Mitral valve flow spectrum of two-dimensional echocardiography, preliminary clinical trial; format: in vivo, human
Method: To evaluate the effect of recombinant human neuregulin on cardiac function of patients with heart failure with preserved ejection fraction, the preliminary clinical trial was carried out in the Sixth People's Hospital Affiliated to Shanghai Jiao Tong University, which comprises 2 patients in the placebo group and 2 patients in the experiment group.
1.1 left ventricular ejection fraction (LVEF) ≥50% (two-dimensional echocardiography diagnosis);
1.2 New York heart function (NYHA) II or III level;
4. Data collection: Mitral valve flow spectrum of two-dimensional echocardiography was detected during the screening period, 11-13 d and 30 d.

[4] = patient 8003, 0.3 ug/kg/day i.v. drip 10 hours a day for 10 days, 11-13 d
[5] = patient 8003, 0.3 ug/kg/day i.v. drip 10 hours a day for 10 days, 30 d
[6] = patient 8003, 0.3 ug/kg/day i.v. drip 10 hours a day for 10 days, screening period (before treatment)
[7] = patient 8004, 0.3 ug/kg/day i.v. drip 10 hours a day for 10 days, 11-13 d
[8] = patient 8004, 0.3 ug/kg/day i.v. drip 10 hours a day for 10 days, 30 d
[9] = patient 8004, 0.3 ug/kg/day i.v. drip 10 hours a day for 10 days, screening period (before treatment)

For `C[C@H](CS)C(=O)N1CCC[C@H]1C(=O)O` [captopril, reference compound], the MAP [1] was 139.9 ± 24.8, the “−dp/dt” value [1] was −5441.2 ± 1007.3 and the blood pressure ([1]; hypertensive rats, vs 216.5±23.2 and 228.0±26.0 in the other groups (p=0.029, p=0.017)) was 174.5±33.0.

B1: NRG: Recombinant human neuregulin, Neucardin™, 61 amino acids, produced by Shanghai Zensun Sci & Tech Co., Ltd. (protein)
chain: SHLVKCAEKEKTFCVNGGECFMVKDLSNPSRYLCKCPNEFTGDRCQNYVMASFYKAEELYQ
modifications: homo sapiens
B1 was tested, and the “left ventricular end diastolic and end systolic volume” value [2] was “prevent further left ventricular end diastolic and end systolic volume enlargement”, the DT [3, 4] was 203.7 ms and the IVRT [3, 4] was 340.1 ms. The DT [3, 5] was 179.5 ms, the IVRT [3, 5] was 345 ms and the DT [3, 6] was 229.08 ms. For the same molecule, the IVRT [3, 6] was 374.31 ms, the DT [3, 7] was 256.15 ms and the IVRT [3, 7] was 609.28 ms. The DT [3, 8] was 255.14 ms, the IVRT [3, 8] was 499.08 ms and the DT [3, 9] was 262.28 ms. For the same molecule, the IVRT [3, 9] was 621.07 ms, the “IVRT and DT values, change over the trial” value ([3]; patients administered with NRG 0.3 ug/kg/day, versus placebo patients whose values gradually increased) was “significantly decreased” and the MAP [1] was 182.5 ± 18.8. For the same molecule, the “−dp/dt” value [1] was −7467.6±715.8.
